Source: doi:10.1101/2020.09.12.286559 (bioRxiv, 2020)

Key:
[1] = target: T1, Recombinant N-terminal His6-tagged TRF1 (human), P54274; test: AFM volume analysis; conditions: remark: other sources report otherwise
T1 chain: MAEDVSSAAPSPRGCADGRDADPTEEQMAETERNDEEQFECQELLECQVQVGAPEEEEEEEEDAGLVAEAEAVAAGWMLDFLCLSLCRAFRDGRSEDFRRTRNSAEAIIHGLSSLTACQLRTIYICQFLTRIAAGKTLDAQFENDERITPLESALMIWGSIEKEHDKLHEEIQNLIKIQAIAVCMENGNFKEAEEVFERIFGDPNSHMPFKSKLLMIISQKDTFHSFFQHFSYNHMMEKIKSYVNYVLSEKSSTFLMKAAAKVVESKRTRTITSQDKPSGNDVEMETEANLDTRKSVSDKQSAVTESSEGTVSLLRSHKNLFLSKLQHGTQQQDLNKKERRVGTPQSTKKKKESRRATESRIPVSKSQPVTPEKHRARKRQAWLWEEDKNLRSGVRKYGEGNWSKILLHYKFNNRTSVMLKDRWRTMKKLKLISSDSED

[2] = target: T2, N-terminal HA-tagged TIN2L (HA-TIN2L, 1-451 aa) (human, UniProt Q9BSI4-1 1-451); test: native gel or EMSA
T2 sequence: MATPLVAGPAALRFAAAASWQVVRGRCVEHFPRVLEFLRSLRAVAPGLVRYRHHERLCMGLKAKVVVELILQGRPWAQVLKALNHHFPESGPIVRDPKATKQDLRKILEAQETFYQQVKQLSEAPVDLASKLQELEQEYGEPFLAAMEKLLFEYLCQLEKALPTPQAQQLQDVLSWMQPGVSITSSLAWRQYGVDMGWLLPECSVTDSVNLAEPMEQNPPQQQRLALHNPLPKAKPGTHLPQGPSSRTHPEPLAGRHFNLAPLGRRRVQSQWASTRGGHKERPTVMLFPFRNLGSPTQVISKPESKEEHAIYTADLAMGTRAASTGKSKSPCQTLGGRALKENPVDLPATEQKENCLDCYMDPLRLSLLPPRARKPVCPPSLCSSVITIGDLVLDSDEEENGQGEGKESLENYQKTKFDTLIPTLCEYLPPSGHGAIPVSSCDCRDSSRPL

B1: Recombinant N-terminal His6-tagged TRF1 (natural protein)
chain: T1 chain
[1]
  stoichiometry N: 2
[2]
  binding result: binds
